In patent publication US20200223889A1 (Novo Nordisk, published 2020):
Positions of bridges follow the written chain, without caps; N, C: chain ends. Non-standard residues stand in square brackets, D forms with d. Pro(trans-4-guanidino) = N=C(N)N[C@H]1CN[C@H](C(=O)O)C1; Pro(cis-4-guanidino) = NC(N)=N[C@@H]1CN[C@H](C(=O)O)C1; Hyp = O=C(O)[C@@H]1C[C@@H](O)CN1; GABA = NCCCC(=O)O; Sar = CNCC(=O)O

B1: Chem. 27 (peptide)
peptide: cyclo(C[Hyp][dF]RWC[Hyp][dF]RW)
modifications: disulfide 1-6
SMILES: N=C(N)NCCC[C@@H]1NC(=O)[C@@H](Cc2ccccc2)NC(=O)[C@@H]2C[C@@H](O)CN2C(=O)[C@@H]2CSSC[C@H](NC(=O)[C@H](Cc3c[nH]c4ccccc34)NC1=O)C(=O)N1C[C@H](O)C[C@H]1C(=O)N[C@H](Cc1ccccc1)C(=O)N[C@@H](CCCNC(=N)N)C(=O)N[C@@H](Cc1c[nH]c3ccccc13)C(=O)N2
notes: also called c[c[Cys-Hyp-D-Phe-Arg-Trp-Cys]-Hyp-D-Phe-Arg-Trp]
B2: Chem. 24 (peptide)
peptide: cyclo(CAH[dF]HWCAH[dF]HW)
modifications: disulfide 1-7
SMILES: C[C@@H]1NC(=O)[C@@H]2CSSC[C@H](NC(=O)[C@H](Cc3c[nH]c4ccccc34)NC(=O)[C@H](Cc3c[nH]cn3)NC(=O)[C@@H](Cc3ccccc3)NC(=O)[C@H](Cc3c[nH]cn3)NC1=O)C(=O)N[C@@H](C)C(=O)N[C@@H](Cc1c[nH]cn1)C(=O)N[C@H](Cc1ccccc1)C(=O)N[C@@H](Cc1c[nH]cn1)C(=O)N[C@@H](Cc1c[nH]c3ccccc13)C(=O)N2
notes: also called c[c[Cys-Ala-His-D-Phe-His-Trp-Cys]-Ala-His-D-Phe-His-Trp]
B3: Chem. 4 (peptide)
peptide: cyclo(CH[dF]RWGCH[dF]RWG)
modifications: disulfide 1-7
SMILES: N=C(N)NCCC[C@@H]1NC(=O)[C@@H](Cc2ccccc2)NC(=O)[C@H](Cc2c[nH]cn2)NC(=O)[C@@H]2CSSC[C@H](NC(=O)CNC(=O)[C@H](Cc3c[nH]c4ccccc34)NC1=O)C(=O)N[C@@H](Cc1c[nH]cn1)C(=O)N[C@H](Cc1ccccc1)C(=O)N[C@@H](CCCNC(=N)N)C(=O)N[C@@H](Cc1c[nH]c3ccccc13)C(=O)NCC(=O)N2
notes: also called c[c[Cys-His-D-Phe-Arg-Trp-Gly-Cys]-His-D-Phe-Arg-Trp-Gly]
B4: Chem. 32 (peptide)
peptide: cyclo(C[Hyp]H[dF]RWC[Hyp]H[dF]RW)
modifications: disulfide 1-7
SMILES: N=C(N)NCCC[C@@H]1NC(=O)[C@@H](Cc2ccccc2)NC(=O)[C@H](Cc2c[nH]cn2)NC(=O)[C@@H]2C[C@@H](O)CN2C(=O)[C@@H]2CSSC[C@H](NC(=O)[C@H](Cc3c[nH]c4ccccc34)NC1=O)C(=O)N1C[C@H](O)C[C@H]1C(=O)N[C@@H](Cc1c[nH]cn1)C(=O)N[C@H](Cc1ccccc1)C(=O)N[C@@H](CCCNC(=N)N)C(=O)N[C@@H](Cc1c[nH]c3ccccc13)C(=O)N2
notes: also called c[c[Cys-Hyp-His-D-Phe-Arg-Trp-Cys]-Hyp-His-D-Phe-Arg-Trp]
B5: Chem. 31 (peptide)
peptide: cyclo(C[Sar]H[dF]RWC[Sar]H[dF]RW)
modifications: disulfide 1-7
SMILES: CN1CC(=O)N[C@@H](Cc2c[nH]cn2)C(=O)N[C@H](Cc2ccccc2)C(=O)N[C@@H](CCCNC(=N)N)C(=O)N[C@@H](Cc2c[nH]c3ccccc23)C(=O)N[C@H]2CSSC[C@H](NC(=O)[C@H](Cc3c[nH]c4ccccc34)NC(=O)[C@H](CCCNC(=N)N)NC(=O)[C@@H](Cc3ccccc3)NC(=O)[C@H](Cc3c[nH]cn3)NC(=O)CN(C)C2=O)C1=O
notes: also called c[c[Cys-Sar-His-D-Phe-Arg-Trp-Cys]-Sar-His-D-Phe-Arg-Trp]
B6: Chem. 36 (peptide)
peptide: cyclo(CVH[dF]RWCVH[dF]RW)
modifications: disulfide 1-7
SMILES: CC(C)[C@@H]1NC(=O)[C@@H]2CSSC[C@H](NC(=O)[C@H](Cc3c[nH]c4ccccc34)NC(=O)[C@H](CCCNC(=N)N)NC(=O)[C@@H](Cc3ccccc3)NC(=O)[C@H](Cc3c[nH]cn3)NC1=O)C(=O)N[C@@H](C(C)C)C(=O)N[C@@H](Cc1c[nH]cn1)C(=O)N[C@H](Cc1ccccc1)C(=O)N[C@@H](CCCNC(=N)N)C(=O)N[C@@H](Cc1c[nH]c3ccccc13)C(=O)N2
notes: also called c[c[Cys-Val-His-D-Phe-Arg-Trp-Cys]-Val-His-D-Phe-Arg-Trp]
B7: Chem. 29 (peptide)
peptide: cyclo(CAH[dF][Pro(cis-4-guanidino)]WCAH[dF][Pro(cis-4-guanidino)]W)
modifications: disulfide 1-7
SMILES: C[C@@H]1NC(=O)[C@@H]2CSSC[C@H](NC(=O)[C@H](Cc3c[nH]c4ccccc34)NC(=O)[C@@H]3C[C@H](N=C(N)N)CN3C(=O)[C@@H](Cc3ccccc3)NC(=O)[C@H](Cc3c[nH]cn3)NC1=O)C(=O)N[C@@H](C)C(=O)N[C@@H](Cc1c[nH]cn1)C(=O)N[C@H](Cc1ccccc1)C(=O)N1C[C@@H](N=C(N)N)C[C@H]1C(=O)N[C@@H](Cc1c[nH]c3ccccc13)C(=O)N2
notes: also called c[c[Cys-Ala-His-D-Phe-4cis-GuaPro-Trp-Cys]-Ala-His-D-Phe-4cis-GuaPro-Trp]
B8: Chem. 25 (peptide)
peptide: CXHFRWCXHFRW
modifications: βAla 2, 8; D-Phe 4, 10; disulphide Cys1-Cys7; head-to-tail amide Cys1-Trp12
notes: also called c[c[Cys-βAla-His-D-Phe-Arg-Trp-Cys]-βAla-His-D-Phe-Arg-Trp]
B9: Chem. 26 (peptide)
peptide: cyclo(C[Hyp][dF]RWC[Hyp][dF]RW)
modifications: bridge 1-6 via methylene bridge (S-CH2-S)
notes: also called c[c[Cys-Hyp-D-Phe-Arg-Trp-Cys]-Hyp-D-Phe-Arg-Trp]; Note: methylene bridge
B10: Chem. 28 (peptide)
peptide: cyclo(CAH[dF][Pro(trans-4-guanidino)]WCAH[dF][Pro(trans-4-guanidino)]W)
modifications: disulfide 1-7
SMILES: C[C@@H]1NC(=O)[C@@H]2CSSC[C@H](NC(=O)[C@H](Cc3c[nH]c4ccccc34)NC(=O)[C@@H]3C[C@@H](NC(=N)N)CN3C(=O)[C@@H](Cc3ccccc3)NC(=O)[C@H](Cc3c[nH]cn3)NC1=O)C(=O)N[C@@H](C)C(=O)N[C@@H](Cc1c[nH]cn1)C(=O)N[C@H](Cc1ccccc1)C(=O)N1C[C@H](NC(=N)N)C[C@H]1C(=O)N[C@@H](Cc1c[nH]c3ccccc13)C(=O)N2
notes: also called c[c[Cys-Ala-His-D-Phe-4trans-GuaPro-Trp-Cys]-Ala-His-D-Phe-4trans-GuaPro-Trp]
B11: Chem. 35 (peptide)
peptide: cyclo(C[GABA]H[dF]RWC[GABA]H[dF]RW)
modifications: disulfide 1-7
SMILES: N=C(N)NCCC[C@@H]1NC(=O)[C@@H](Cc2ccccc2)NC(=O)[C@H](Cc2c[nH]cn2)NC(=O)CCCNC(=O)[C@@H]2CSSC[C@H](NC(=O)[C@H](Cc3c[nH]c4ccccc34)NC1=O)C(=O)NCCCC(=O)N[C@@H](Cc1c[nH]cn1)C(=O)N[C@H](Cc1ccccc1)C(=O)N[C@@H](CCCNC(=N)N)C(=O)N[C@@H](Cc1c[nH]c3ccccc13)C(=O)N2
notes: also called c[c[Cys-GABA-His-D-Phe-Arg-Trp-Cys]-GABA-His-D-Phe-Arg-Trp]
B12: Chem. 30 (peptide)
peptide: cyclo(CPH[dF]RWCPH[dF]RW)
modifications: disulfide 1-7
SMILES: N=C(N)NCCC[C@@H]1NC(=O)[C@@H](Cc2ccccc2)NC(=O)[C@H](Cc2c[nH]cn2)NC(=O)[C@@H]2CCCN2C(=O)[C@@H]2CSSC[C@H](NC(=O)[C@H](Cc3c[nH]c4ccccc34)NC1=O)C(=O)N1CCC[C@H]1C(=O)N[C@@H](Cc1c[nH]cn1)C(=O)N[C@H](Cc1ccccc1)C(=O)N[C@@H](CCCNC(=N)N)C(=O)N[C@@H](Cc1c[nH]c3ccccc13)C(=O)N2
notes: also called c[c[Cys-Pro-His-D-Phe-Arg-Trp-Cys]-Pro-His-D-Phe-Arg-Trp]
B13: Chem. 37 (peptide)
peptide: CAHFXWCAHFXW
modifications: D-Phe 4, 10; N-MeArg 5, 11; disulphide Cys1-Cys7; head-to-tail amide Cys1-Trp12
notes: also called c[c[Cys-Ala-His-D-Phe-N-MeArg-Trp-Cys]-Ala-His-D-Phe-N-MeArg-Trp]
B14: Chem. 3 (peptide)
peptide: XAHFRWXAHFRW
modifications: HCys 1, 7; D-Phe 4, 10; disulphide HCys1-HCys7; head-to-tail amide HCys1-Trp12
notes: also called c[c[HCys-Ala-His-D-Phe-Arg-Trp-HCys]-Ala-His-D-Phe-Arg-Trp]

What follows are binders tested against T1, human melanocortin 4 receptor (human, UniProt P32245 1-332) (assay: cell-based or functional assay).
T1 sequence (P32245 whole entry): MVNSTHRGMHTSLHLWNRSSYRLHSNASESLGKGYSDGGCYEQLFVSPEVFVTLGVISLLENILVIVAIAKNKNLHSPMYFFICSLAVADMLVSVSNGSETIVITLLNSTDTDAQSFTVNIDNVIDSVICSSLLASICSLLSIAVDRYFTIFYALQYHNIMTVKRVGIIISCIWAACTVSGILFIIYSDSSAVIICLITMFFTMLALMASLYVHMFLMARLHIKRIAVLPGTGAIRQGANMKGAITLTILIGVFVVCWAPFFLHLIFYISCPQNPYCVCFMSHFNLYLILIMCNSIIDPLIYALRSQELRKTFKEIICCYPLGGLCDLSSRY

| Binder | MC4R cAMP EC50 [nM] |
| --- | --- |
| B1 | 0.24 |
| B2 | 0.49 |
| B3 | 0.09 |
| B4 | 0.12 |
| B5 | 0.29 |
| B6 | 0.04 |
| B7 | 1020 |
| B8 | 0.02 |
| B9 | 0.18 |
| B10 | 518 |
| B11 | 0.01 |
| B12 | 0.03 |
| B13 | 1.57 |
| B14 | 0.26 |

What follows are binders tested against human melanocortin 1 receptor (human, UniProt Q01726 1-317) (assay: cell-based or functional assay).
Chain of human melanocortin 1 receptor (Q01726 whole entry): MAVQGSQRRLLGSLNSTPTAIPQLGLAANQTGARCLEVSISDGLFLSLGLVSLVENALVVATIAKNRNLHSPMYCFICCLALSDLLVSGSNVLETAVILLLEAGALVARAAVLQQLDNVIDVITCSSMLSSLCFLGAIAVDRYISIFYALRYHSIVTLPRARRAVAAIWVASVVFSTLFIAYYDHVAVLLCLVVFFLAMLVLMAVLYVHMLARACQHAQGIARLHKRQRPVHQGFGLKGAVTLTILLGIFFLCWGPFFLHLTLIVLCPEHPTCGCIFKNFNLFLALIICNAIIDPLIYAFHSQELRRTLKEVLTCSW

| Binder | MC1R cAMP EC50 [nM] |
| --- | --- |
| B1 | 50.9 |
| B2 | 178 |
| B3 | 0.67 |
| B4 | 1.98 |
| B5 | 7.78 |
| B6 | 1.05 |
| B7 | > 100 |
| B8 | 0.34 |
| B9 | 17.2 |
| B10 | > 100 |
| B11 | 0.28 |
| B12 | 0.61 |
| B13 | 13.1 |
| B14 | 7.29 |

The binders below were run against T1, human melanocortin 4 receptor (assay: competition with 125-NDP-α-MSH, BHK human MC4R membranes).
How it was run: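 Competition binding used membranes from BHK cells stably expressing human MC4R with ¹²⁵I-NDP-α-MSH (apx. […] final), compound at 1 μM–0.001 nM. Incubation was 2 h at 25 °C in HEPES pH 7.0 buffer with CaCl₂, MgSO₄, EGTA, Tween 20 and 0.1% HSA or ovalbumin. Filter-bound radioactivity was fitted by non-linear regression.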

| Binder | Ki [nM] |
| --- | --- |
| B1 | 1.01 |
| B2 | 0.55 |
| B3 | 0.69 |
| B4 | 0.37 |
| B5 | 1.67 |
| B6 | 0.12 |
| B7 | 1210 |
| B8 | 0.04 |
| B9 | 0.44 |
| B10 | 892 |
| B11 | 0.03 |
| B12 | 0.09 |
| B13 | 3.31 |
| B14 | 0.42 |
